Data published in patent US20210139579A1 (NBE THERAPEUTICS, published 2021).
Residue numbers refer to the chain shown, from its start.

Tests used:
[1] = molecular target: T1, Recombinant human twin strep-tagged ROR2 extracellular domain (human, UniProt Q01974 34-403); assay: ELISA on coated twin strep-tagged hROR2
T1 construct: extracellular domain; also called strep-tagged human ROR2; recombinant, purified hROR2
Description: (§1) Each well of a 96-well plate was coated with 100 μL of 2 μg/mL strep-tagged human ROR1 or ROR2 (from Example 5) in 0.1 M bicarbonate coating buffer (pH 9.6), and incubated for 12 h at 4° C.

[2] = molecular target: T2, StrepII-tagged human ROR1-extracellular domain (human, UniProt Q01973 30-406); assay: ELISA on coated strep-tagged hROR1, detected with anti-human Fc-gamma HRP
T2 construct: also called strep-tagged human ROR1; recombinant, purified hROR1
T2 sequence (Q01973 other isoform, or with tags, fused parts or gaps): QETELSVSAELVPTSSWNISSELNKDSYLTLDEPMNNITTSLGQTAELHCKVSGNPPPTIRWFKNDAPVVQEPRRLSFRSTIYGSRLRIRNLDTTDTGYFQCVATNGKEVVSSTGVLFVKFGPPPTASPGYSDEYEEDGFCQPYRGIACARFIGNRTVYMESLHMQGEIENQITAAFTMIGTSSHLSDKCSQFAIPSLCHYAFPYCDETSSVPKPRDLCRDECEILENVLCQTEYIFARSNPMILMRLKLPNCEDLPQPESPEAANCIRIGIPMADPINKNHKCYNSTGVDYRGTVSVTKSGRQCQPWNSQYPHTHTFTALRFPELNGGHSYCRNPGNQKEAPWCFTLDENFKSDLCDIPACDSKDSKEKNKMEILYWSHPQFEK
Description: as §1

[3] = molecular target: T3, human ROR1 (hROR1) on the cell surface (human, UniProt Q01973 30-937); assay: flow cytometry on human cancer cell lines, 2A2 at 2 µg/mL
T3 construct: whole, on cells; Endogenous on the human lines 697, MDA-MB-468, HS-578T, A549 and HT-29; ectopically expressed on murine EMT-6 cells (clone 14); also called full-length ROR1 (NP_005003.2)
T3 sequence (Q01973 30-937): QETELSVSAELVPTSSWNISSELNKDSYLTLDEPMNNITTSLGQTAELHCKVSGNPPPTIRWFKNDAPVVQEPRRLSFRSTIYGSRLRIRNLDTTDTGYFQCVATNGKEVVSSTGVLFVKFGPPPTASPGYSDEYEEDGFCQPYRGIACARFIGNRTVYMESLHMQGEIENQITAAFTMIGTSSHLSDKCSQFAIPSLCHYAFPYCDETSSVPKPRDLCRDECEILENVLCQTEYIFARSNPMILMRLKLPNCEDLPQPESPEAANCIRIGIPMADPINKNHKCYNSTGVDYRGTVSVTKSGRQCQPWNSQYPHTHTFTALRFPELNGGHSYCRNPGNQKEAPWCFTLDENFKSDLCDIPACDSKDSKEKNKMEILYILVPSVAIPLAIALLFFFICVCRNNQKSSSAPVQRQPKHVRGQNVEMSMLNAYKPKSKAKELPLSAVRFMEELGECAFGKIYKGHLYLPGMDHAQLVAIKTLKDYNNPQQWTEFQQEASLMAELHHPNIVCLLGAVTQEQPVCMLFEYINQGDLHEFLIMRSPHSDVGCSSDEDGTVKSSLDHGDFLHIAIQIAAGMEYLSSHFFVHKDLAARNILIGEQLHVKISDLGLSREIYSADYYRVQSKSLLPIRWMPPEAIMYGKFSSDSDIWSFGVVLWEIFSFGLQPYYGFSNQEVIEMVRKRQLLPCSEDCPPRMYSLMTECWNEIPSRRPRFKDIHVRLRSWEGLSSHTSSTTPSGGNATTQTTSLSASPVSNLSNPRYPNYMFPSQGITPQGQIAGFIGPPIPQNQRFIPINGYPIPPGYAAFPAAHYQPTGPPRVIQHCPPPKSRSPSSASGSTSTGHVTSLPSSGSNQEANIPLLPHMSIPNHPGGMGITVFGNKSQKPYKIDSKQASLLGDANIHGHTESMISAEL

T1 sequence (Q01974 other isoform, or with tags, fused parts or gaps): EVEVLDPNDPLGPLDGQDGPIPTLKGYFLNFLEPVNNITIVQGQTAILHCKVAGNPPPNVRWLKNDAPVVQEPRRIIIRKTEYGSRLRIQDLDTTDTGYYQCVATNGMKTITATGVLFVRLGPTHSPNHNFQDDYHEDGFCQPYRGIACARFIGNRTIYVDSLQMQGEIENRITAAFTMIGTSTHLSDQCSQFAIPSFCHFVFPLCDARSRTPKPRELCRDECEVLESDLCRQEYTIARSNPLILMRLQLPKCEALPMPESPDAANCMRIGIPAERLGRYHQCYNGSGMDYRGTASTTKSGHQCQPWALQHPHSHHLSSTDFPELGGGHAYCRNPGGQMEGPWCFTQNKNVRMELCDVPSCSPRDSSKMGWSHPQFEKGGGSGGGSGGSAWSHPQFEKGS

B1: ERR1-306 (mAb033) (antibody, human IgG1, V domains shown)
VH: QEQLKESGGGLVQPGGSLKLSCKASGFDLSNYGVSWVRQAPGKGLEWIGYIDPTFDYTYYASWVNGRFSISRENTQNTVSLQINSLTPADTATYFCARWVYGVDDYGDGNWLDLWGQGTLVTISS
VL: QFVLTQSPSVSAALGASAKLTCTLSSAHKTYTIDWYQQQQGEAPRYLMELKSDGSYTKGTGVPDRFSGSSSGADRYLIIPSVQADDEADYYCGTDYSGGYVFGGGTQLTVTG
notes: Chimeric rabbit/human IgG1, lambda; not shown: Strep tag
B1: no binding [1].

B2: ERR1-301 (mAb027) (antibody, human IgG1, V domains shown)
VH: QEQLEESGGGLVTPGGSLTLTCTASGFTISTYHMSWVRQAPGKGLEWIGSIYAGSGSTYYASWVNGRFTISSNTTQNTVSLQMNSLTVADTATYFCARDHPSYGMDLWGPGTLVTVSS
VL: SYELTQLPSVSVSLGQTARITCGGNSIGSKAVNWYQQKPGLAPGLLIYDDDERPSGVPDRFSASNSGDTATLTISGAQAEDEADYYCQLWDSSAVAYVFGGGTQLTVTG
notes: as for B1
B2: binds [2]; no binding [1].

B3: ERR1-Top43 (mAb036) (antibody, human IgG1, V domains shown)
VH: QSLEESGGRLVTPGTPLTLTCTVSGFSLSSYWMSWVRQAPGKGLEWIGAIYGSGNTYYASWAKGRFTISKTSTTVDLKITSPTTEDTATYFCARDVHSTATDLWGPGTLVTISS
VL: B2 VL with S26N, D49N, A63G, E80G, V95G
notes: as for B1
B3: binds [2]; no binding [1].

B4: ERR1-403 (mAb035) (antibody, human IgG1, V domains shown)
VH: QEQLKESGRGLVQPGGSLKLSCKASGFDFSGWYMTWVRQAPGKGLEWIGTIGTTKGRTYYASWVNGRFTISSDNAQNTVDLQMNSLTAADRATYFCVRGSDYFDLWGPGTLVTISS
VL: B2 VL with D59A, A63G, E80G, V95G
notes: as for B1
B4: binds [2]; no binding [1].

B5: ERR1-324 (mAb034) (antibody, human IgG1)
heavy: not shown
light: ELVLTQTPSPVSAAVGGTVTINCQASQSVYGNNELAWYQQKPGQPPKLLIYRASILTSGVPSRFKGSGSGTQFTLTISNVQREDAATYYCLGGYVSQSYRAAFGGGTELEILRTVAAPSVFIFPPSDEQLKSGTASVVCLLNNFYPREAKVQWKVDNALQSGNSQESVTEQDSKDSTYSLSSTLTLSKADYEKHKVYACEVTHQGLSSPVTKSFNRGECGGGGGSLPETG
notes: Chimeric rabbit/human IgG1, kappa; not shown: Strep tag
B5: binds [2]; no binding [1].

B6: 2A2 (mAb066) (antibody, human IgG1)
heavy: not shown
light: DIVMTQSQKIMSTTVGDRVSITCKASQNVDAAVAWYQQKPGQSPKLLIYSASNRYTGVPDRFTGSGSGTDFTLTISNMQSEDLADYFCQQYDIYPYTFGGGTKLEIKRTVAAPSVFIFPPSDEQLKSGTASVVCLLNNFYPREAKVQWKVDNALQSGNSQESVTEQDSKDSTYSLSSTLTLSKADYEKHKVYACEVTHQGLSSPVTKSFNRGECGGGGGSLPETG
notes: IgG with human IgG1 and kappa constant regions; also called anti-human ROR1 antibody 2A2; not shown: Strep tag
B6: binds [3].

B7: XBR1-402 (mAb031) (antibody, human IgG1, V domains shown)
VH: QEQQKESGGGLFKPTDTLTLTCTASGFDISSYYMSWVRQAPGNGLEWIGAIGISGNAYYASWAKSRSTITRNTNLNTVTLKMTSLTAADTATYFCARDHPTYGMDLWGPGTLVTVSS
VL: SYELTQLPSVSVSLGQTARITCEGNNIGSKAVHWYQQKPGLAPGLLIYDDDERPSGVPDRFSGSNSGDTATLTISGAQAGDEADYYCQVWDSSAYVFGGGTQLTVTG
notes: as for B1
B7: binds [2]; no binding [1].
